Experimental data reported in PMC4674680 (2015).

target: 6His–PAK4cat (PAK4 286–591) (human, UniProt O96013 286-591); experiment: kinase activity inhibition (GST-Raf13 phosphorylation)
Sequence (O96013 286-591): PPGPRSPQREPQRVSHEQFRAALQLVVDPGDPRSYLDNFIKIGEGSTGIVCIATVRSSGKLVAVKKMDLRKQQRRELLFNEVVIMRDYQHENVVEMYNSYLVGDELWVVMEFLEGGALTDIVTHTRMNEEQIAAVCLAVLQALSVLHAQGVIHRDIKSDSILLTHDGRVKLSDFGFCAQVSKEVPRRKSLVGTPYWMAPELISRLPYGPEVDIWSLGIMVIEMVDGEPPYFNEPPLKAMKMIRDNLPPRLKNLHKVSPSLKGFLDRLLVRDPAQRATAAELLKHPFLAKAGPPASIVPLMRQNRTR

| Binder | IC50 |
| --- | --- |
| EAEDWTAALLNRGRSRQPLVLGDNCFADLVHNWMELPE (domain or fragment, GST carrier left out. Limits 166-203 are the paper's, taken from the 4XBR fusion: Flag/SGS 1-12, iBox 13-50, EF linker 51-52, PAK4 278-591 from 53 (12+38+2+314=366). Entity position = paper number - 153 (F191=F38, L194=L41, V195=V42, P(0)=P30). The paper's Inka1 numbering may differ from UniProt Q96EL1 (paper's C-terminus is 285, entry is 287 aa).) [GST-iBox (Inka1 166–203)] | 36 nM |
| AEDWTAALLNRGRSRQPLVLGDW [iBox 23mer synthetic peptide] | 229 nM |

Next, values leading:

| IC50 | Binder |
| --- | --- |
| 300 nM | VSRFAALMSCRSRQPIICNDVSYL (synthetic peptide; exact limits are only in Fig. 1d; taken as the last 24 residues because the text gives a 24mer of iBox-C (C-terminal 22 aa of Inka1)) [iBox-C24] |
| 382 nM | SRQPLVLGDNCFADLVHNWMELPE (synthetic peptide; taken as the C-terminal 24 residues (paper numbering 180-203) of the 38-aa iBox; 4XBR position = Inka1 paper number minus 153; exact limits are only in Fig. 1d) [iBox24C] |
